This data set in a line: self-splicing fitness, log relative to wild type (ln ratio); higher = more splicing; Tetrahymena group I intron in knt gene, E. coli kanamycin selection, DiMSum; sequences stand for … in CUCUCU…GGAGGGAAAAGUUAUCAGGCAUGCACCUGGUAGCUAGUCUUUAAACCAAUAGAUUGCAUCGGUUUAAAAGGCAAGACCGUCAAAUUGCGGGAAAGGGGUCAACAGCCGUUCAGUACCAAGUCUCAGGGGAAACUUUGAGAUGGCCUUGCAAAGGGUAUGGUAAUAAGCUGACGGACAUGGUCCUAACCACGCAGCCAAGUCCUAAGUCAACAGAUCUUCUGUUGAUAUGGAUGCAGUUCACAGACUAAAUGUCGGUCGGGGAAGAUGUAUUCUUCUCAUAAGAUAUAGUCGGACCUCUCCUUAAUGGGAGCUAGCGGAUGAAGUGAUGCAACACUGGAGCCGCUGGGAACUAAUUUGUAUGCGAAAGUAUAUUGAUUAGUUUUGGAGUACUCGUGGUCG
An outline of the steps: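 DiMSum derived fitness as the error-weighted combination of fold changes across replicates, kanamycin versus no kanamycin, normalised to wild type. E. coli BL21(DE3) held the library, which randomised all eight P1ex-region intron nucleotides within the knt kanamycin-resistance gene on pET-22b(+). Six replicate transformations grew overnight at 37°C or 30°C on LB agar with or without 25 μg/mL kanamycin, also containing 100 μg/mL carbenicillin, 50 μM IPTG and 0.2% rhamnose, and pooled colonies were amplicon-sequenced on an Illumina HiSeq 2500.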

± gives the uncertainty stated by the source.

The values that follow come from the supplement of paper PMC7877785.

As for CCUGAGCAAUAUUACGGUUU, the “self-splicing fitness (ln)” value is -3.26 ± 0.2 (30 °C) and -2.38 ± 0.19 (37 °C).

For the sequence CUUCAGCAAUAUUACGUGUG, the “self-splicing fitness (ln)” value (30 °C) was -1.1 ± 0.061 and the “self-splicing fitness (ln)” value (37 °C) is -0.859 ± 0.076.

CCUUAGCAAUAUUACGGCUG: the “self-splicing fitness (ln)” value is, setting by setting: (30 °C) -3.9 ± 0.19; (37 °C) -2.39 ± 0.17.

As to AGCAAGCAAUAUUACGCCAG, the “self-splicing fitness (ln)” value is, setting by setting: (30 °C) -2.09 ± 0.2; (37 °C) -2.65 ± 0.44.

As for GCGCAGCAAUAUUACGGGCU, the “self-splicing fitness (ln)” value is -3.6 ± 0.23 (30 °C) and -3.02 ± 0.27 (37 °C).

UACGAGCAAUAUUACGCAUC: the “self-splicing fitness (ln)” value (37 °C) is -1.96 ± 0.21.

As to GAUUAGCAAUAUUACGGGGU, the “self-splicing fitness (ln)” value was -3.45 ± 0.18 (30 °C) and -2.11 ± 0.13 (37 °C).

Regarding UUUCAGCAAUAUUACGAAGC, the “self-splicing fitness (ln)” value (30 °C) is -0.935 ± 0.36.

In the case of AUCCAGCAAUAUUACGUGAG, the “self-splicing fitness (ln)” value is, setting by setting: (30 °C) -0.052 ± 0.045; (37 °C) 0.237 ± 0.073.

Turning to GUCAAGCAAUAUUACGUUCC, the “self-splicing fitness (ln)” value reads like this: (30 °C) -1.5 ± 0.11; (37 °C) -0.728 ± 0.13.

UGAGAGCAAUAUUACGUCAC: the “self-splicing fitness (ln)” value (30 °C) was -2.08 ± 0.4.

For the sequence CCACAGCAAUAUUACGUCGA, the “self-splicing fitness (ln)” value is, setting by setting: (30 °C) -2.93 ± 0.11; (37 °C) -1.47 ± 0.099.

Take GGGCAGCAAUAUUACGCAAG: the “self-splicing fitness (ln)” value was -1.37 ± 0.24 (30 °C) and -0.431 ± 0.23 (37 °C).

Regarding AAGAAGCAAUAUUACGCUCC, the “self-splicing fitness (ln)” value (30 °C) is -2.37 ± 0.2 and the “self-splicing fitness (ln)” value (37 °C) was -0.643 ± 0.18.

Regarding GUACAGCAAUAUUACGUCAU, the “self-splicing fitness (ln)” value reads like this: (30 °C) -1.7 ± 0.09; (37 °C) -1.13 ± 0.11.

For the sequence ACCAAGCAAUAUUACGGACC, the “self-splicing fitness (ln)” value is -0.368 ± 0.098 (30 °C) and -0.214 ± 0.12 (37 °C).

Consider AUUCAGCAAUAUUACGAUGG, for which the “self-splicing fitness (ln)” value (30 °C) was -2.57 ± 0.16 and the “self-splicing fitness (ln)” value (37 °C) is -0.688 ± 0.15.

AAUUAGCAAUAUUACGACGC: the “self-splicing fitness (ln)” value was -1.08 ± 0.14 (30 °C) and -0.792 ± 0.13 (37 °C).

ACGGAGCAAUAUUACGUAUG: the “self-splicing fitness (ln)” value is -3.6 ± 0.2 (30 °C) and -2.81 ± 0.32 (37 °C).

As for AUUAAGCAAUAUUACGCCGA, the “self-splicing fitness (ln)” value was -1.23 ± 0.26 (30 °C) and 0.0906 ± 0.26 (37 °C).

In the case of UCGCAGCAAUAUUACGCGCC, the “self-splicing fitness (ln)” value is, setting by setting: (30 °C) -3.12 ± 0.17; (37 °C) -1.59 ± 0.13.

As for CUCUAGCAAUAUUACGCUCG, the “self-splicing fitness (ln)” value was -3.05 ± 0.25 (30 °C) and -1.68 ± 0.23 (37 °C).

As for UAACAGCAAUAUUACGUACU, the “self-splicing fitness (ln)” value is, setting by setting: (30 °C) -1.07 ± 0.063; (37 °C) -0.454 ± 0.068.

As to UUACAGCAAUAUUACGCGAG, the “self-splicing fitness (ln)” value runs as follows: (30 °C) -1.02 ± 0.085; (37 °C) -0.72 ± 0.08.

For the sequence CAACAGCAAUAUUACGGUGA, the “self-splicing fitness (ln)” value by setting is: (30 °C) -1.58 ± 0.071; (37 °C) -0.727 ± 0.084.

Regarding GUCAAGCAAUAUUACGAAAU, the “self-splicing fitness (ln)” value by setting is: (30 °C) -2.14 ± 0.13; (37 °C) -0.595 ± 0.12.

Consider UUCCAGCAAUAUUACGAAUA, for which the “self-splicing fitness (ln)” value reads like this: (30 °C) -1.24 ± 0.15; (37 °C) -0.772 ± 0.16.

Regarding CGAUAGCAAUAUUACGGACC, the “self-splicing fitness (ln)” value (30 °C) was -1.78 ± 0.36 and the “self-splicing fitness (ln)” value (37 °C) was -1.7 ± 0.29.

As for GGGUAGCAAUAUUACGUCCA, the “self-splicing fitness (ln)” value by setting is: (30 °C) -0.128 ± 0.093; (37 °C) 0.376 ± 0.12.

As for CAGUAGCAAUAUUACGUGCA, the “self-splicing fitness (ln)” value reads like this: (30 °C) -3.14 ± 0.13; (37 °C) -2.45 ± 0.14.

For UUGAAGCAAUAUUACGAAAA, the “self-splicing fitness (ln)” value (30 °C) was -0.641 ± 0.12 and the “self-splicing fitness (ln)” value (37 °C) was 0.066 ± 0.15.

With AGUCAGCAAUAUUACGUGAC, the “self-splicing fitness (ln)” value was -2.96 ± 0.24 (30 °C) and -2.86 ± 0.2 (37 °C).

For UGUAAGCAAUAUUACGGACG, the “self-splicing fitness (ln)” value (30 °C) is -0.142 ± 0.11 and the “self-splicing fitness (ln)” value (37 °C) turned out to be 0.762 ± 0.14.

For the sequence GACGAGCAAUAUUACGGUCA, the “self-splicing fitness (ln)” value (30 °C) was -2.22 ± 0.15 and the “self-splicing fitness (ln)” value (37 °C) is -0.552 ± 0.15.

Regarding UACCAGCAAUAUUACGCUGU, the “self-splicing fitness (ln)” value (30 °C) is -3.86 ± 0.17 and the “self-splicing fitness (ln)” value (37 °C) was -1.36 ± 0.13.

Turning to CUCAAGCAAUAUUACGUUUC, the “self-splicing fitness (ln)” value was -4.05 ± 0.24 (30 °C) and -3.83 ± 0.37 (37 °C).

For the sequence UGGAAGCAAUAUUACGUGAA, the “self-splicing fitness (ln)” value reads like this: (30 °C) -1.33 ± 0.096; (37 °C) -1.65 ± 0.12.

In the case of UAUGAGCAAUAUUACGUCUG, the “self-splicing fitness (ln)” value runs as follows: (30 °C) -0.9 ± 0.13; (37 °C) -0.416 ± 0.15.

Regarding CGACAGCAAUAUUACGUCGA, the “self-splicing fitness (ln)” value runs as follows: (30 °C) -3.04 ± 0.18; (37 °C) -2.51 ± 0.15.

On to CUGAAGCAAUAUUACGGUGU, for which the “self-splicing fitness (ln)” value runs as follows: (30 °C) -3.3 ± 0.1; (37 °C) -2.95 ± 0.12.

With UCAGAGCAAUAUUACGUCGU, the “self-splicing fitness (ln)” value (30 °C) is -2.89 ± 0.24 and the “self-splicing fitness (ln)” value (37 °C) was -0.54 ± 0.24.

In the case of UGUGAGCAAUAUUACGUAUU, the “self-splicing fitness (ln)” value is -3.12 ± 0.16 (30 °C) and -2.63 ± 0.26 (37 °C).

For the sequence UUUUAGCAAUAUUACGUGGG, the “self-splicing fitness (ln)” value reads like this: (30 °C) -1.79 ± 0.2; (37 °C) -2.27 ± 0.27.

Turning to ACAAAGCAAUAUUACGCAAU, the “self-splicing fitness (ln)” value (30 °C) is -1.87 ± 0.078 and the “self-splicing fitness (ln)” value (37 °C) is -1.6 ± 0.092.

With ACGAAGCAAUAUUACGCUUA, the “self-splicing fitness (ln)” value was -1.81 ± 0.087 (30 °C) and -0.374 ± 0.083 (37 °C).

For the sequence AUGCAGCAAUAUUACGCCGC, the “self-splicing fitness (ln)” value (30 °C) is -0.963 ± 0.28.

Turning to AGUCAGCAAUAUUACGUGUA, the “self-splicing fitness (ln)” value (30 °C) was -3.11 ± 0.14 and the “self-splicing fitness (ln)” value (37 °C) is -0.76 ± 0.086.

For CUCGAGCAAUAUUACGAGUC, the “self-splicing fitness (ln)” value (30 °C) was -3.52 ± 0.32 and the “self-splicing fitness (ln)” value (37 °C) is -2.53 ± 0.2.

On to CUCUAGCAAUAUUACGCAGG, for which the “self-splicing fitness (ln)” value was -3.35 ± 0.26 (30 °C) and -3.04 ± 0.47 (37 °C).

For GCGAAGCAAUAUUACGGUGG, the “self-splicing fitness (ln)” value (30 °C) was -4.24 ± 0.23 and the “self-splicing fitness (ln)” value (37 °C) was -3.08 ± 0.27.

Regarding CAAAAGCAAUAUUACGGCAC, the “self-splicing fitness (ln)” value is, setting by setting: (30 °C) -2.9 ± 0.14; (37 °C) -2.09 ± 0.15.

Consider GACGAGCAAUAUUACGGUUU, for which the “self-splicing fitness (ln)” value runs as follows: (30 °C) -2.28 ± 0.11; (37 °C) -1.87 ± 0.14.

Turning to AAGGAGCAAUAUUACGUAUU, the “self-splicing fitness (ln)” value is -2.95 ± 0.12 (30 °C) and -2.34 ± 0.15 (37 °C).

On to CGUCAGCAAUAUUACGCUUU, for which the “self-splicing fitness (ln)” value by setting is: (30 °C) -3.76 ± 0.27; (37 °C) -1.66 ± 0.17.

As for GAGUAGCAAUAUUACGGACA, the “self-splicing fitness (ln)” value runs as follows: (30 °C) -1.44 ± 0.087; (37 °C) -0.816 ± 0.082.

In the case of GCUAAGCAAUAUUACGAAAU, the “self-splicing fitness (ln)” value is, setting by setting: (30 °C) -1.64 ± 0.11; (37 °C) -0.218 ± 0.1.

Regarding GCACAGCAAUAUUACGUUGC, the “self-splicing fitness (ln)” value reads like this: (30 °C) -3.95 ± 0.17; (37 °C) -2.57 ± 0.17.

For UUCCAGCAAUAUUACGACGA, the “self-splicing fitness (ln)” value was -0.529 ± 0.12 (30 °C) and 0.216 ± 0.15 (37 °C).

With UAAAAGCAAUAUUACGAUUG, the “self-splicing fitness (ln)” value by setting is: (30 °C) -1.18 ± 0.087; (37 °C) -0.639 ± 0.11.

Turning to UCCUAGCAAUAUUACGGCAG, the “self-splicing fitness (ln)” value (30 °C) is -3.38 ± 0.24 and the “self-splicing fitness (ln)” value (37 °C) was -2.81 ± 0.22.

For the sequence UAUCAGCAAUAUUACGCCAU, the “self-splicing fitness (ln)” value is, setting by setting: (30 °C) -1.73 ± 0.27; (37 °C) -1.55 ± 0.28.
